Source: US8754033B2, “Peptides for inhibiting transglutaminase” (National Cancer Center, priority 2005, dated 2014)

What was measured:
[1] = target: transglutaminase (guinea pig liver, Sigma) (Cavia cutleri, UniProt P08587); details: purified I-κBα with 1 mU transglutaminase, 50 mM Tris-HCl pH 7.5, 10 mM CaCl2, NuPAGE gel; in the presence of EDTA
Procedure: For in vitro polymerization, 10 pg of the purified I-κBα was incubated with 1 mU transglutaminase (guinea pig liver, Sigma) in a reaction mixture containing 50 mM Tris-HCl pH 7.5 and 10 mM CaCl2. Polymerization was analyzed using 4-12% NUPAGE gel electrophoresis (Invitrogen) (FIG. 3).

TGase = target: T1, TGase (UniProt P08587); experiment: Competition assay: transglutaminase-mediated I-κBα cross-linking with or without synthetic peptides; type: biochemical, guinea pig; details: peptide 2 nmol, I-κBα 2 μg, 0.5 mU TGase, 10 mM CaCl2, 10 min at 37° C., SDS-PAGE, Coomassie band intensity
T1 sequence (P08587 1-690): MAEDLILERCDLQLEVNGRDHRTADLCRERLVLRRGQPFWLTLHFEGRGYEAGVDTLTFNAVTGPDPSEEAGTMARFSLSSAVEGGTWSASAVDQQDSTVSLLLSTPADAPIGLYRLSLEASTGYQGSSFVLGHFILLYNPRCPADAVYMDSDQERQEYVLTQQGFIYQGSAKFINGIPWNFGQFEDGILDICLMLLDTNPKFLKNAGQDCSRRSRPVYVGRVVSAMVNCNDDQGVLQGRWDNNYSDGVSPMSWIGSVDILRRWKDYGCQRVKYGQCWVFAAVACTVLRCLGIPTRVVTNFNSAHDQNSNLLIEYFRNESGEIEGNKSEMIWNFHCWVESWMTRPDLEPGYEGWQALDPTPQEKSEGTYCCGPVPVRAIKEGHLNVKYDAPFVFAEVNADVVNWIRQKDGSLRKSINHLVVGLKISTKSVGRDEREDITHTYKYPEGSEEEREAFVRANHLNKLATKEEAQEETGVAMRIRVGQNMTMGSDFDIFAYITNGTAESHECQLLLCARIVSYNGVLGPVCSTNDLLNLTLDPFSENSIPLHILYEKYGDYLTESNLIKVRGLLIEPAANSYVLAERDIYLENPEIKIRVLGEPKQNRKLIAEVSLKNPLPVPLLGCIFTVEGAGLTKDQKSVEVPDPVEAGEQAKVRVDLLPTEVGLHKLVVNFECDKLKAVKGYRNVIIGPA
Procedure: I-κBα (2 μg) was incubated with 0.5 mU TGase in a reaction buffer containing 50 mM Tris pH 7.5 and 10 mM CaCl2, with or without the peptides (2 nmol) of Table 1, so as to observe the cross-linking of I-κBα. The peptides of Table 1 were synthesized in Peptron Inc. After incubation for 10 min at 37° C., the reactants were separated by SDS-PAGE and visualized by Coomassie staining. Bands were measured for intensity using Adobe Photoshop software (FIGS. 7 and 8).

Row | Compound | inhibition of transglutaminase (I-κBα polymerization) [1] | inhibition of transglutaminase-mediated I-κBα polymerization (TGase)
1 | O=C(O)CN(CCN(CC(=O)O)CC(=O)O)CC(=O)O [EDTA] | inhibited | 
2 | ENLQMLP [I-κBα-derived synthetic peptide, residues 275-281] |  | inhibit transglutaminase-mediated I-κBα polymerization
3 | GVLTQSCTT [I-κBα-derived synthetic peptide, residues 161-169] |  | inhibit transglutaminase-mediated I-κBα polymerization
4 | HSILKATNY [I-κBα-derived synthetic peptide, residues 173-181] |  | inhibit transglutaminase-mediated I-κBα polymerization
5 | IHEEKALTM [I-κBα-derived synthetic peptide, residues 83-91] |  | inhibit transglutaminase-mediated I-κBα polymerization
6 | ILKAT [I-κBα-derived synthetic peptide, residues 175-179] |  | inhibit transglutaminase-mediated I-κBα polymerization
7 | LGQLT [I-κBα-derived synthetic peptide, residues 269-273] |  | inhibit transglutaminase-mediated I-κBα polymerization
8 | RDGLKKERLL [I-κBα-derived synthetic peptide, residues 17-26] |  | inhibit transglutaminase-mediated I-κBα polymerization
9 | RIEEQLG [mutant of I-κBα-derived peptide] |  | inhibit transglutaminase-mediated I-κBα polymerization
10 | RIEQELG [mutant of I-κBα-derived peptide] |  | inhibit transglutaminase-mediated I-κBα polymerization
11 | RIQEELG [mutant of I-κBα-derived peptide] |  | inhibit transglutaminase-mediated I-κBα polymerization
12 | RIQQQLG [I-κBα-derived synthetic peptide, residues 264-270] |  | inhibit transglutaminase-mediated I-κBα polymerization
13 | TRIQQQLGQLTL [I-κBα-derived synthetic peptide, residues 263-274] |  | inhibit transglutaminase-mediated I-κBα polymerization
14 | VFGGQRLTL [I-κBα-derived synthetic peptide, residues 309-317] |  | inhibit transglutaminase-mediated I-κBα polymerization
